Numbering of substitutions follows the chain as printed. In names and notes the source's numbering stands.
B1: K317A: SETD7 substitution mutant at position 317 (protein)
chain: MDSDDEMVEEAVEGHLDDDGLPHGFCTVTYSSTDRFEGNFVHGEKNGRGKFFFFDGSTLEGYYVDDALQGQGVYTYEDGGVLQGTYVDGELNGPAQEYDTDGRLIFKGQYKDNIRHGVCWIYYPDGGSLVGEVNEDGEMTGEKIAYVYPDERTALYGKFIDGEMIEGKLATLMSTEEGRPHFELMPGNSVYHFDKSTSSCISTNALLPDPYESERVYVAESLISSAGEGLFSKVAVGPNTVMSFYNGVRITHQEVDSRDWALNGNTLSLDEETVIDVPEPYNHVSKYCASLGHKANHSFTPNCIYDMFVHPRFGPIACIRTLRAVEADEELTVAYGYDHSPPGKSGPEAPEWYQVELKAFQATQQK
B2: SETD7 T332E/S340D/S345D: SETD7-GFP mutant with three phospho-mimicking substitutions (protein, UniProt Q8WTS6 1-366, looked up, variant T332E S340D S345D)
Histone-lysine …: B1 chain with A317K, T332E, S340D, S345D
modifications: GFP tag
notes: SETD7-GFP mutant with three phospho-mimicking substitutions
B3: SETD7 H297A/T332E/S340D/S345D: catalytically inert phospho-mimicking SETD7 mutant due to the H297A mutation (protein)
chain: B1 chain with H297A, A317K, T332E, S340D, S345D
B4: SETD7 S340A: SETD7 mutant, Ser340 mutated to alanine; cannot be phosphorylated (protein)
chain: B1 chain with A317K, S340A
B5: SETD7 T332A: SETD7 mutant, Thr332 mutated to alanine; cannot be phosphorylated (protein)
chain: B1 chain with A317K, T332A
B6: SETD7 S340D: SETD7-GFP mutant with phospho-mimicking substitution S340D (protein, UniProt Q8WTS6 1-366, looked up, variant S340D)
Histone-lysine …: B1 chain with A317K, S340D
modifications: GFP tag

Tests used:
H3 and p53/TP53 = conditions: cited from earlier work
TAF10 = conditions: cited from earlier work
[1] = tested on: human retinal pigment epithelial (RPE) cells; experiment: Cellular distribution of SETD7-GFP mutants under low or high glucose (GFP fluorescence); assay type: cell-based; conditions: SETD7-GFP mutants in human RPE cells; low glucose and high glucose conditions; FIG. 4
Experimental: SETD7-GFP mutants with phospho-mimicking substitutions at positions 332, 340 and/or 345 were prepared. The phospho-mimicking substitutions were T332E, S340D, and/or S345D. The SETD7-GFP mutants were expressed in human retinal pigment epithelial (RPE) cells. The fluorescence intensity emitted from the GFP signal in the cells under high or low glucose condition was measured.

[2] = tested on: human retinal pigment epithelial cells (RPE); experiment: Nuclear translocation of SETD7 alanine (phospho-disrupting) mutants in response to high glucose levels; assay type: cell-based; conditions: mutants expressed in human RPE cells; FIG. 3
Source text: To identify the potential role of phosphorylatable sites located in the C-terminal regions of SETD7 (FIG. 1), phosphorylatable serines, threonines and tyrosines at positions 225, 305, 332, 340, and 345 where mutated to alanine (phospho-disrupting mutations) and expressed in human retinal pigment epithelial cells (RPE). Nuclear translocation or lack thereof in response to high glucose levels was examined (FIG. 2).
SETD7 cellular distribution changed in response to changes in glucose levels for wild type SETD7 (WT) and SETD7 mutants comprising a S225A substitution or a Y305A substitutions.

Molecule | methyltransferase activity for H3 and p53/TP53 (H3 and p53/TP53) | methyltransferase activity toward TAF10 (TAF10) | translocation to the nucleus [1] | nuclear translocation in response to changes in glucose [2]
B1 | increased | reduction |  | 
B2 |  |  | translocated to the nucleus | 
B3 |  |  | translocated to the nucleus | 
B4 |  |  | not translocated to the nucleus | did not translocate to the nucleus
B5 |  |  | not translocated to the nucleus | did not translocate to the nucleus
B6 |  |  | translocated to the nucleus | 

Source: patent publication US20230220007A1, “SETD7 EPIGENETIC MODULATORS” (Biorchestra Co., Ltd., priority 2020, published 2023)
